# Laboratory results published in patent US20150259402A1 (EVEC, published 2015).
# B1: EV029104 (antibody, human IgG1, lambda, V domains shown)
# VH: EVQLVESGGGLVQPGGSLRLSCAASGLTINSYWMNWVRQIPGKGLEWVANINPTGSQQYYVDSVRGRFTISRDDAKKSLFLQLDSLRVEDTAVYYCARGRRGNSAYCDSWGQGTQVTVSS
# VL: QSALTQPRSVSGSPGQSVTISCTGTSSDIGAYDYVSWYRHHPGKAPKLIIFDVAKWPSGVPDRFSGSKSGNTASLTISGLQDDDEGDYYCCSYAGRFSLIFGGGTKLTVLG
# notes: also called anti-toxin B antibody EV029104
# B2: EV029105a (antibody, human IgG1, kappa, V domains shown)
# VH: QVQLVQSGAEVKKPGSSVKVSCKASGDTFSSHAITWVRQAPGQGLEWMGRIIPIFSISDYAQKFQGRVTFTADKSTSIAFMELSSLRSQDTAVYYCARSLLAYCTGGSCSEFGAEDHWGQGTLVTVSS
# VL: EIVLTQSPGTLSLSPGERATLSCRASQSVSSNYLAWYQQKPGQAPRLLIFGASSRATGIPDRFSGSGSGTDFTLTISRLEPEDFAVYYCQQYGSSIPVTFGQGTKVEIKR
# notes: also called anti-toxin A antibody EV029105a
# Legend:
# [1] = target: T1, toxin B fragment 4 (receptor-binding domain, amino acids 1777 to 2366 of toxin B) (Clostridium difficile, UniProt P18177 1777-2366); assay: Western blotting on E. coli lysates of toxin B fragments
# T1 construct: also called RB domain
# [2] = target: Clostridium difficile toxin B (Clostridium difficile, UniProt P18177 2-2366); assay: cell-based or functional assay
# Sequence of Clostridium difficile toxin B (P18177 2-2366 limits assumed): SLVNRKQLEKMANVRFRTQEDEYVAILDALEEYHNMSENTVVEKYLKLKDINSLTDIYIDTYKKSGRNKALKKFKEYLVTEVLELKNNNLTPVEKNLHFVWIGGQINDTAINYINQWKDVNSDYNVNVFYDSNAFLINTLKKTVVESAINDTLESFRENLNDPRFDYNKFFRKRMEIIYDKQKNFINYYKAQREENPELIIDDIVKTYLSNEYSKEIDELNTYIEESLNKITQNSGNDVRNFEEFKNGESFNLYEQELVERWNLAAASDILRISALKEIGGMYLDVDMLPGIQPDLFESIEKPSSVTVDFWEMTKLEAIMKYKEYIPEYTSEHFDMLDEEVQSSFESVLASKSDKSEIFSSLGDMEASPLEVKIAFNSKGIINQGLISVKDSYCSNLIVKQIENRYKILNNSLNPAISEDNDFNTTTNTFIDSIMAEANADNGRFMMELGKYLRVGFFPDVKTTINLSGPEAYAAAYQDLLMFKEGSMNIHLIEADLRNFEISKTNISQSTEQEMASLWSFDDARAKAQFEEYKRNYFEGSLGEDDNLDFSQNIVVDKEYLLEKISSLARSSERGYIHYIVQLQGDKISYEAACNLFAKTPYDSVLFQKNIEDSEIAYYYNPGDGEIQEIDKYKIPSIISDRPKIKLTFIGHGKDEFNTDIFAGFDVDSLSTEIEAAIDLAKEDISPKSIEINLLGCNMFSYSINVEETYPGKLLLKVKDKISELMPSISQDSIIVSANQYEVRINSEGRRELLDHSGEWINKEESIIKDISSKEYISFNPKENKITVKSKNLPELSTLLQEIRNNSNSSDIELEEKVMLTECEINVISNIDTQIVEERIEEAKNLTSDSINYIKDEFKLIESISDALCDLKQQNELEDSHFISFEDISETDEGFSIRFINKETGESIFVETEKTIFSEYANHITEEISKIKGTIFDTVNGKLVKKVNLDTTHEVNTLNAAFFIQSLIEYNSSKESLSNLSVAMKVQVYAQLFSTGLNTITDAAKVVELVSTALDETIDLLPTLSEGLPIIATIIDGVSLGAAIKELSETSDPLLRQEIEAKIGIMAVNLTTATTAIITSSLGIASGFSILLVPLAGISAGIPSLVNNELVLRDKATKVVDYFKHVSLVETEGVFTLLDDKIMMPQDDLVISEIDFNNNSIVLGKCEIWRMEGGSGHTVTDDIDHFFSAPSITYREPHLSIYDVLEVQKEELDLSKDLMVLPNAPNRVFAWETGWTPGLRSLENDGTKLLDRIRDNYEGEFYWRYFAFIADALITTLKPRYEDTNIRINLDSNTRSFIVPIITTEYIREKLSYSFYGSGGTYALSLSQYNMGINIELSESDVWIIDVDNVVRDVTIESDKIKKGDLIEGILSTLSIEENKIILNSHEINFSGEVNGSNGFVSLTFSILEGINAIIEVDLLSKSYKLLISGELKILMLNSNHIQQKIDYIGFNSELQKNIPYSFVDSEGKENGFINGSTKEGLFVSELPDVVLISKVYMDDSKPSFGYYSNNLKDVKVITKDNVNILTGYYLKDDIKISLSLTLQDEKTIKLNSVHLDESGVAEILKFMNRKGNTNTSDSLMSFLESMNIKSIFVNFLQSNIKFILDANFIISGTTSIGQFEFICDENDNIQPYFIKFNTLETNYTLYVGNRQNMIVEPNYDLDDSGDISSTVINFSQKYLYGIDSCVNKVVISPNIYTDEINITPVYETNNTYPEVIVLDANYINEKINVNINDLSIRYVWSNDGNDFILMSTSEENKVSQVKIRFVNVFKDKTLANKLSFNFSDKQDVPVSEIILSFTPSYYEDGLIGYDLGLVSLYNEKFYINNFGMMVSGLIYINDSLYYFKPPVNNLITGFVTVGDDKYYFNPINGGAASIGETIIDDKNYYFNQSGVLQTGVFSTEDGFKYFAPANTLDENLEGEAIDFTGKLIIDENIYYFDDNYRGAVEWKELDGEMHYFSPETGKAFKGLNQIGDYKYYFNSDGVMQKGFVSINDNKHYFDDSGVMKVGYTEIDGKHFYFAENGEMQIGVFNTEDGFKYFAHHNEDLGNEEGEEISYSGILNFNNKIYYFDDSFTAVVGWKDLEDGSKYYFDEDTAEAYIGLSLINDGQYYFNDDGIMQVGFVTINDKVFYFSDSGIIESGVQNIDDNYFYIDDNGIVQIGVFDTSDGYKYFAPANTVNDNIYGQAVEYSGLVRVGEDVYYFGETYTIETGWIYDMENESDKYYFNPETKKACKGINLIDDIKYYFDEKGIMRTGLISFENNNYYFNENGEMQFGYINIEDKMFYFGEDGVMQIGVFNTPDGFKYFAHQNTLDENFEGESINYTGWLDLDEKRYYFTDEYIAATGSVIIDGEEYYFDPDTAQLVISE
# [3] = target: T2, toxin A fragment 4 (receptor-binding domain, amino acids 1853 to 2710 of toxin A) (Clostridium difficile, UniProt P16154 1853-2710); assay: Western blotting on E. coli lysates of toxin A fragments
# T2 construct: also called RB domain
# [4] = target: T3, Clostridium difficile toxin A (Clostridium difficile, UniProt P16154 1-2710); assay: SPR, Biacore T200, biotinylated toxin A on sensor chip CAP, antibody flowed
# T3 construct: also called TcdA; C. difficile toxin A
# T3 sequence (P16154 whole entry): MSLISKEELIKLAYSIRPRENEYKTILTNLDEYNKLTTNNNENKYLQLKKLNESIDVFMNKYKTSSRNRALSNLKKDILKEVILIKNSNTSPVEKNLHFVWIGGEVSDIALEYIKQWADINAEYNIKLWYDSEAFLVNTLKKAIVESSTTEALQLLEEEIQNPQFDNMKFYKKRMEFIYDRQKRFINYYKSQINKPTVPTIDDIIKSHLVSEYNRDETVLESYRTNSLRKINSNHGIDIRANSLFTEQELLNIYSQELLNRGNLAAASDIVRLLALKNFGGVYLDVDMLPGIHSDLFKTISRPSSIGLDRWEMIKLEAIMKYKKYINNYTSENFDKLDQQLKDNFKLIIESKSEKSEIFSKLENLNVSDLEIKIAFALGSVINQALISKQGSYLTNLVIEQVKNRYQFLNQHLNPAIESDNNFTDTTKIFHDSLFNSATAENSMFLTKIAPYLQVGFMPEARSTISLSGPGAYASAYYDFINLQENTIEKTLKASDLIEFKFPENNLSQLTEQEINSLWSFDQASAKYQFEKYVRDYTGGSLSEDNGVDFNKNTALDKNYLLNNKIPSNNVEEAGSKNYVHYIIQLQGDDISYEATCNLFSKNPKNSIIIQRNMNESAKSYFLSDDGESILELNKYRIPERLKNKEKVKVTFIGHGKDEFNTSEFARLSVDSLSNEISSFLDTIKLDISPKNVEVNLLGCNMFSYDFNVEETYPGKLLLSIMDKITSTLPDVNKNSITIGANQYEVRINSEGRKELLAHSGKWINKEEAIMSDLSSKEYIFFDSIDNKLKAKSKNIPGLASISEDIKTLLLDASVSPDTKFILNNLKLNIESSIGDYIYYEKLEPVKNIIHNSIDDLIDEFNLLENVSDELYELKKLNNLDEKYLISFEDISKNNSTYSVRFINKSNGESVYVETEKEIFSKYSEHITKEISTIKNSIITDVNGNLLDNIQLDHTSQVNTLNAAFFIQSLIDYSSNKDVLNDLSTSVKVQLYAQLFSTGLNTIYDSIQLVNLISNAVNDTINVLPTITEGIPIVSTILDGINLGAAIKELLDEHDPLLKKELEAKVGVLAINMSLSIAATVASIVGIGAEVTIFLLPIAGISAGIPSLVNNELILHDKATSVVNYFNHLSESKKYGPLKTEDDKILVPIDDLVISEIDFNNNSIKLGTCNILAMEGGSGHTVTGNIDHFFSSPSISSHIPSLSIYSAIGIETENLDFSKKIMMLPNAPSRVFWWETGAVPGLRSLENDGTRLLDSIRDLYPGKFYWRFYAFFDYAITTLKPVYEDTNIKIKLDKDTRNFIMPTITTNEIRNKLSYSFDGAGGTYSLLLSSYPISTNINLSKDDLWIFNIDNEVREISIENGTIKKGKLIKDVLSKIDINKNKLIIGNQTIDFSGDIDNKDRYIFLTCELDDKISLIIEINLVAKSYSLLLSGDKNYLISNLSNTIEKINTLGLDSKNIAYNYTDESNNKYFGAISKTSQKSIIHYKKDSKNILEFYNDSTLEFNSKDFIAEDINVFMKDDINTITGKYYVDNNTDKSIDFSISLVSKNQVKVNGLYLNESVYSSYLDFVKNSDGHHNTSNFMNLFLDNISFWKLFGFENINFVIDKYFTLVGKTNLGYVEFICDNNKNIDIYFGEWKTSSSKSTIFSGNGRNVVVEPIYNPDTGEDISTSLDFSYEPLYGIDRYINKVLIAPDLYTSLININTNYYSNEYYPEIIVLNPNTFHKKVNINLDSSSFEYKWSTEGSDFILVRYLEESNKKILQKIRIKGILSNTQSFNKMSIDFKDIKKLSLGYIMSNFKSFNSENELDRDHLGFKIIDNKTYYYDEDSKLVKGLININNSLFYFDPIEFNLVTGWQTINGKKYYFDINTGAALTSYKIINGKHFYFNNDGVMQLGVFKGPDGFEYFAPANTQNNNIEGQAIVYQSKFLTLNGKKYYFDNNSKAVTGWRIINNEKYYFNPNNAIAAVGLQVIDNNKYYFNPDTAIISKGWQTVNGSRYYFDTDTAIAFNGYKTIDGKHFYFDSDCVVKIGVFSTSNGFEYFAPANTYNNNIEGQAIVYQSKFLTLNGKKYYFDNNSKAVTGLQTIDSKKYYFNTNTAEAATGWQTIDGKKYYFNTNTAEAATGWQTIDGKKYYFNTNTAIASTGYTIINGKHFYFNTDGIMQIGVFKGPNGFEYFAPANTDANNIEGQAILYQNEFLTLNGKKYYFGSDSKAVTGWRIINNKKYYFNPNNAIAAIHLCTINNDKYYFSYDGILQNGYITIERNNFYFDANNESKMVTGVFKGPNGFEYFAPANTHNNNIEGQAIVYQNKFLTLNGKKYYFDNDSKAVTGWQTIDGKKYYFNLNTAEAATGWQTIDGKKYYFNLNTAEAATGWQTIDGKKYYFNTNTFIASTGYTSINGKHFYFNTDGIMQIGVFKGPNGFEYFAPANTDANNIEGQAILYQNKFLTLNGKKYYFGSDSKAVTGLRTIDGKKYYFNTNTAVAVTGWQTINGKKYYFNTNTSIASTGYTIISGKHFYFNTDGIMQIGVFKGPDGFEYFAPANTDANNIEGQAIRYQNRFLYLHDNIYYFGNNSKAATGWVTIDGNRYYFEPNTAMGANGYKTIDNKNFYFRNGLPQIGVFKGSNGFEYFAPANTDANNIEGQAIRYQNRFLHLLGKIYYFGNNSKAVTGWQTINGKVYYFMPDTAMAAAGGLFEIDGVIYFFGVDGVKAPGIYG
# [5] = target: T3, Clostridium difficile toxin A; assay: cell-based or functional assay
Binder,binding result [1],"neutralizing activity (EC50 value), rounding of toxin B-exposed IMR-90 cells [2] [ng/mL]",binding result [3],Kd [4] [nM],koff [4] [s⁻¹],kon [4] [M⁻¹ s⁻¹],"EC50 (ng/mL), neutralizing activity against the cytotoxicity of toxin A to IMR-90 cells (cell rounding) [5] [ng/mL]","EC50, neutralizing activity against the cytotoxicity of toxin A to IMR-90 cells (cell rounding) [5] [nM]"
B1,binds,≤ 100,–,–,–,–,–,–
B2,–,–,binds,0.151,9.89e-05,653000,4.92,0.033
